# Measurements from paper PMC9352680, “A comprehensive thermodynamic model for RNA binding by the Saccharomyces cerevisiae Pumilio protein PUF4”.
# Residue numbers refer to the chain shown, from its start. Names and notes keep the numbering of the source.
# T1: PUF4 RNA-binding domain (Saccharomyces cerevisiae, UniProt P25339 537-888)
# T1 sequence: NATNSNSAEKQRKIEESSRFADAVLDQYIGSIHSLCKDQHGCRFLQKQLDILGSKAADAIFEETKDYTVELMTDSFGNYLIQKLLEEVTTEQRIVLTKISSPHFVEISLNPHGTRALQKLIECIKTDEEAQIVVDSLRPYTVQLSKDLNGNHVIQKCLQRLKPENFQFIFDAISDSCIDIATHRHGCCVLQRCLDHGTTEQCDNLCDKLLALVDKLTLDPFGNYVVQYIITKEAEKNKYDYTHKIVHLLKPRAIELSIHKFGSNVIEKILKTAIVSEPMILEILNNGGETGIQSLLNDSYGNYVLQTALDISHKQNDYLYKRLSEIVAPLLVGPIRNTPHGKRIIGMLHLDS
# B1: Ic_S4_P4E.1_K4.1_C4.1_H4.1_A4.1_[A6G]_[T7C]_F4.1_[T8A]_T4.1 (ssRNA)
# RNA: UUUGACAACUGAUCGUUCUUUCUUGUAUGCAAUUCUUUCUCGAUCAGUUGUCUUU
# B2: Ic_S4_P4E.1_K4.1_C4.1_H4.1_A4.1_[A6G]_[T7C]_F4.1_[T8C]_T4.1 (ssRNA)
# RNA: B1 RNA with A31C
# B3: Ic_S4_P4E.1_K4.1_C4.1_H4.1_A4.1_[A6C]_[T7C]_F4.1_[T8C]_[A9C]_T4.1 (ssRNA)
# RNA: B1 RNA with G29C, A31C, A32C
# B4: Ic_S4_P4E.1_K4.1_C4.1_H4.1_A4.1_[T5A]_[A6T]_[T7C]_F4.1_[A9G]_T4.1 (ssRNA)
# RNA: B1 RNA with U28A, G29U, A31U, A32G
# B5: Ic_S4_P4E.1_K4.1_C4.1_H4.1_A4.1_[T5A]_[A6T]_[T7A]_F4.1_[T8A]_T4.1 (ssRNA)
# RNA: B1 RNA with U28A, G29U, C30A
# B6: Ic_S4_P4E.1_K4.1_C4.1_H4.1_A4.1_[T5A]_[T7C]_F4.1_[A9T]_T4.1 (ssRNA)
# RNA: B1 RNA with U28A, G29A, A31U, A32U
# B7: Ic_S4_P4E.1_K4.1_C4.1_H4.1_A4.1_[T5A]_[T7A]_F4.1_[A9G]_T4.1 (ssRNA)
# RNA: B1 RNA with U28A, G29A, C30A, A31U, A32G
# B8: Ic_S4_P4E.1_K4.1_C4.1_H4.1_A4.1_[T5A]_[A6T]_[T7A]_F4.1_[A9G]_T4.1 (ssRNA)
# RNA: B1 RNA with U28A, G29U, C30A, A31U, A32G
# B9: Ic_S4_P4E.1_K4.1_C4.1_H4.1_A4.1_[T5A]_[A6T]_F4.1_[T8G]_[A9C]_T4.1 (ssRNA)
# RNA: B1 RNA with U28A, G29U, C30U, A31G, A32C
# B10: Ic_S4_P4E.1_K4.1_C4.1_H4.1_A4.1_[T5A]_[T7C]_F4.1_[A9C]_T4.1 (ssRNA)
# RNA: B1 RNA with U28A, G29A, A31U, A32C
# B11: Ic_S4_P4E.1_K4.1_C4.1_H4.1_A4.1_[T5A]_[T7C]_F4.1_[T8G]_[A9T]_T4.1 (ssRNA)
# RNA: B1 RNA with U28A, G29A, A31G, A32U
# B12: Ic_S4_P4E.1_K4.1_C4.1_H4.1_A4.1_[A6G]_F4.1_[T8A]_T4.1 (ssRNA)
# RNA: B1 RNA with C30U
# B13: Ic_S4_P4E.1_K4.1_C4.1_H4.1_A4.1_[T5A]_[A6T]_F4.1_T4.1 (ssRNA)
# RNA: B1 RNA with U28A, G29U, C30U, A31U
# B14: Ic_S4_P4E.1_K4.1_C4.1_H4.1_A4.1_[A6G]_[T7C]_F4.1_[T8G]_[A9T]_T4.1 (ssRNA)
# RNA: B1 RNA with A31G, A32U
# B15: Ic_S4_P4E.1_K4.1_C4.1_H4.1_A4.1_[T5A]_[T7C]_F4.1_[T8C]_[A9G]_T4.1 (ssRNA)
# RNA: B1 RNA with U28A, G29A, A31C, A32G
# B16: Ic_S4_P4E.1_K4.1_C4.1_H4.1_A4.1_[A6C]_[T7G]_F4.1_[T8G]_[A9C]_T4.1 (ssRNA)
# RNA: B1 RNA with G29C, C30G, A31G, A32C
# B17: Ic_S4_P4E.1_K4.1_C4.1_H4.1_A4.1_[A6G]_[T7G]_F4.1_[A9T]_T4.1 (ssRNA)
# RNA: B1 RNA with C30G, A31U, A32U
# B18: Ic_S4_P4E.1_K4.1_C4.1_H4.1_A4.1_[T5A]_[A6T]_F4.1_[A9C]_T4.1 (ssRNA)
# RNA: B1 RNA with U28A, G29U, C30U, A31U, A32C
# B19: Ic_S4_P4E.1_K4.1_C4.1_H4.1_A4.1_[A6C]_[T7G]_F4.1_[T8C]_[A9C]_T4.1 (ssRNA)
# RNA: B1 RNA with G29C, C30G, A31C, A32C
# B20: Ic_S4_P4E.1_K4.1_C4.1_H4.1_A4.1_[A6G]_[T7C]_F4.1_[T8C]_[A9C]_T4.1 (ssRNA)
# RNA: B1 RNA with A31C, A32C
# B21: Ic_S4_P4E.1_K4.1_C4.1_H4.1_A4.1_[T5A]_[A6T]_[T7A]_F4.1_[T8C]_[A9T]_T4.1 (ssRNA)
# RNA: B1 RNA with U28A, G29U, C30A, A31C, A32U
# B22: Ic_S4_P4E.1_K4.1_C4.1_H4.1_A4.1_[T5A]_[T7C]_F4.1_[T8A]_[A9T]_T4.1 (ssRNA)
# RNA: B1 RNA with U28A, G29A, A32U
# B23: Ic_S4_P4E.1_K4.1_C4.1_H4.1_A4.1_[A6G]_[T7G]_F4.1_[T8C]_[A9G]_T4.1 (ssRNA)
# RNA: B1 RNA with C30G, A31C, A32G
# B24: Ic_S4_P4E.1_K4.1_C4.1_H4.1_A4.1_[A6C]_[T7C]_F4.1_[T8G]_[A9T]_T4.1 (ssRNA)
# RNA: B1 RNA with G29C, A31G, A32U
# B25: Ic_S4_P4E.1_K4.1_C4.1_H4.1_A4.1_[T5A]_[T7A]_F4.1_T4.1 (ssRNA)
# RNA: B1 RNA with U28A, G29A, C30A, A31U
# B26: Ic_S4_P4E.1_K4.1_C4.1_H4.1_A4.1_[T5A]_[A6T]_[T7C]_F4.1_[A9T]_T4.1 (ssRNA)
# RNA: B1 RNA with U28A, G29U, A31U, A32U
# B27: Ic_S4_P4E.1_K4.1_C4.1_H4.1_A4.1_[T5A]_[A6T]_F4.1_[T8A]_[A9T]_T4.1 (ssRNA)
# RNA: B1 RNA with U28A, G29U, C30U, A32U
# Target: T1, PUF4 RNA-binding domain
# Test: Mg; RNA-MaP; 20 mM Na-HEPES pH 7.4, 30 mM KOAc, 0.75 mM MgCl2, 0.1% Tween-20, 5% glycerol, 0.1 mg/mL BSA, 2 mM DTT; 25 C; 0.0125-409.6 nM protein
# Details: tags: N-His6-TEV cleaved; C-SNAP kept, Cy3B-labelled; label: tethered on chip by stalled RNA polymerase
row,Binder,Kd [nM]
1,B1,243
2,B2,28.5
3,B3,403
4,B4,41.6
5,B5,144
6,B6,51.4
7,B7,44.5
8,B8,21.6
9,B9,421
10,B10,76.1
11,B11,506
12,B12,70.5
13,B13,2.38
14,B14,261
15,B15,942
16,B16,> 2300
17,B17,292
18,B18,64.3
19,B19,994
20,B20,558
21,B21,116
22,B22,211
23,B23,> 2300
24,B24,172
25,B25,3.34
26,B26,34.8
27,B27,56.2
28,UCUCUUUGUAUAGCAUCUCUU (ssRNA) [Ib_S1_P4E.1_K4.1_C4.1_H4.1_A4.1_[T7G]_F4.1_[T8C]_T4.1],26.2
29,UCUCUUUGUAUUUAAUCUCUU (ssRNA) [Ic_S1_P4E.1_K4.1_C4.1_H4.1_A4.1_[A6T]_F4.1_[T8A]_T4.1],66.5
